# Read-outs that look alike come from different tables or passages of the source.
# What was measured:
# [1] = target: Bacillus anthracis protective antigen (PA), 83 kDa polypeptide (Bacillus anthracis) (UniProt P13423); assay: SPR, PA immobilized on CM5 chip
# [2] = target: Bacillus anthracis protective antigen (PA), 83 kDa polypeptide (Bacillus anthracis) (UniProt P13423); assay: SPR, PA immobilized on CM5 chip at low coupling density
# [3] = target: Bacillus anthracis protective antigen (PA), 83 kDa polypeptide (Bacillus anthracis) (UniProt P13423); assay: SPR, PA immobilized on CM5 chip; remark: listed apart in the source
# [4] = target: Bacillus anthracis protective antigen (PA), 83 kDa polypeptide (Bacillus anthracis) (UniProt P13423); assay: ELISA on PA; scFv kept 2 h at 4 C before the titration
# Sequence of Bacillus anthracis protective antigen (PA), 83 kDa polypeptide (Bacillus anthracis) (P13423 30-764 limits assumed): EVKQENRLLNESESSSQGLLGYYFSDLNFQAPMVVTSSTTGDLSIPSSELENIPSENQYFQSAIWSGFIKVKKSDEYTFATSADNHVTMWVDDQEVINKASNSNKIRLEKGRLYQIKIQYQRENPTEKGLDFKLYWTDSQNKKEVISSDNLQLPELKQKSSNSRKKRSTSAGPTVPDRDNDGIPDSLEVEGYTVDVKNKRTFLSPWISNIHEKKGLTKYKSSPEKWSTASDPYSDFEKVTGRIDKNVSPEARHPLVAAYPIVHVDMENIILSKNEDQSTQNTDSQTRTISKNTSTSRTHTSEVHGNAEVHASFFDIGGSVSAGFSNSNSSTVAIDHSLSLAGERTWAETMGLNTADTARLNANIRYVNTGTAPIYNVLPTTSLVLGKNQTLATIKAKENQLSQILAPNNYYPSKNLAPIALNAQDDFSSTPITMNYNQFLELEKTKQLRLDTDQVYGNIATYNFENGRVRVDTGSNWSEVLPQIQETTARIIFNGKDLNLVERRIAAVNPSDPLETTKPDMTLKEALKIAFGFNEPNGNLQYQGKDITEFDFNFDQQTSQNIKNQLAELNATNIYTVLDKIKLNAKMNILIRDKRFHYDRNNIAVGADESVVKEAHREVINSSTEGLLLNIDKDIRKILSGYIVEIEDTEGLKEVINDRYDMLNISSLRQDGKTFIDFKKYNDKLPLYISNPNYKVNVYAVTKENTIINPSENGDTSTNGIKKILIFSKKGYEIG
Substance,koff [1] [s⁻¹],kon [1] [M⁻¹ s⁻¹],Kd [2] [µM],Kd [1] [µM],koff [3] [s⁻¹],kon [3] [M⁻¹ s⁻¹],EC50 (read off the curve) [4] [µg/mL]
14B7 wild type scAb (scFv with a C-terminal human constant kappa domain),0.003,290000,–,–,–,–,–
14B7 monoclonal antibody (mouse IgG1 from hybridoma 14B7),0.00135,500000,0.0023,–,–,–,–
14B7 Fab (papain digest of the 14B7 mouse IgG1),0.0033,300000,–,0.012,0.0035,310000,–
14B7 wild type scFv,0.0032,310000,–,0.012,0.0035,–,0.05

# — US7446182
